Data on one molecule can be found in patent publication US20020165140A1 (ANGIOGENETICS SWEDEN, published 2002).

The target in one experiment is T1, GAL4-HIF-1α/526-826 (UniProt P04386 1-147; Q16665 526-826).
T1 construct: In vitro translated
Briefly: coimmunoprecipitation of 35S-IPAS with anti-GAL4 antibody, in vitro translated proteins.

For the next experiment, the target named is T2, GAL4 DBD (UniProt P04386 1-147, limits assumed).
T2 construct: Control in the coprecipitation assay
The experiment is described as above.

Procedure for GAL4 DBD: (§1) Precipitated fraction was analyzed by SDS PAGE and results were obtained by autoradiography.
(§2) After brief centrifugation, coimmunoprecipitated proteins were analyzed by SDS-PAGE.
Procedure for GAL4-HIF-1α/526-826: as §1, §2

B1: Inhibitory PAS Domain Protein (IPAS), in vitro translated (other)
chain: MALGLQRVRSNTELRKEKSRDAARSRRSQETEVLYQLAHTLPFARGVSAHLDKASIMRLTISYLRMHRLCAAGGKRGRATGRLLPEGPGGFRHGTHRRGRHGLPVGKCQQAPGPQSVDLCSSSLIHNPTPGTNFSLELIGHSIFDFIHPCDQEELQDALTPRPNLSKKKLEAPTERHFSLRMKSTLTSRGRTLNLKAATWKVLHCSGHMRAYKPPAQTSPAGSPRSEPPLQCLVLICEAIPQLPFHDGATLGLPQEKTPISTLFTPLWKALLCLVKRWPVQVLQGKGTESSLPSWVLWALNRKNCPG
modifications: 35S-labeled methionine (in the coprecipitation assay)
notes: Polypeptide of 307 amino acids; generated by in vitro translation in rabbit reticulocyte lysate; also called mouse IPAS; mIPAS
On to B1, for which the binding result with GAL4-HIF-1α/526-826 and with GAL4 DBD was “no binding” throughout.
